Test results reported in patent US20120177636A1.
Values belong to the substance of their own block, whether it stands above or below them.

Columns and labels:
[1] = biological target: CA215 on NaIO4-treated OC-3-VGH cancer cells (human); assay: direct binding EIA on OC-3-VGH cell-coated wells, with NaIO4 treatment
CA215 (human) [2] = assay: direct binding EIA on OC-3-VGH cell-coated wells, without NaIO4 treatment
CA215 (human) [3] = assay: sandwich EIA: antibody coated at 5 µg/ml, OC-3-VGH shed medium, HRP-labeled RP215 as detector; no human IgG
CA215 (human) [4] = assay: sandwich EIA: antibody coated at 5 µg/ml, OC-3-VGH shed medium, HRP-labeled RP215 as detector; with 10 µg/ml human IgG
CA215 (human) [5] = assay: two-step ELISA on OC-3-VGH cancer cells, goat anti-mouse IgG-ALP; OD over that of normal mouse IgG at the same concentration
CA215 (human) [6] = assay: sandwich EIA: antibody coated at 5 µg/ml, OC-3-VGH shed medium, HRP-labeled RP215 as detector; no human IgG; relative to RP215
CA215 (human) [7] = assay: sandwich EIA: antibody coated at 5 µg/ml, OC-3-VGH shed medium, HRP-labeled RP215 as detector; with 10 µg/ml human IgG; relative to RP215
[8] = biological target: RP215 monoclonal antibody; assay: ELISA, RP215 coated in wells, goat antibody as detector; row normalised to RP215
humanized RP215 = assay: ELISA, hRP215 coated in wells, goat antibody as detector; row normalised to RP215
chimeric RP215 mAb = assay: ELISA, chRP215 coated in wells, goat antibody as detector; row normalised to RP215
human IgG (human) = assay: ELISA, human IgG coated in wells, goat antibody as detector; row normalised to RP215

Chain of chimeric RP215 mAb (VH, as listed by the source, chain 1 of 2): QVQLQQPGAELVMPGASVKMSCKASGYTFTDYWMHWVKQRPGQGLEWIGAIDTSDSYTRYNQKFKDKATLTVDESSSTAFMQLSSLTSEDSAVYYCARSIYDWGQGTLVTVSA
Chain of chimeric RP215 mAb (VL, as listed by the source, chain 2 of 2): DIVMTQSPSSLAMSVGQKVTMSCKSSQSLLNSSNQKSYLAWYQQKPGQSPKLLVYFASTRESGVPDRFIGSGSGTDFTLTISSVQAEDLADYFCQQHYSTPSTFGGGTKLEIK
Chain of RP215 monoclonal antibody (VH, as listed by the source, chain 1 of 2): as the sequence (VH, as listed by the source, chain 1 of 2) above
Chain of RP215 monoclonal antibody (VL, as listed by the source, chain 2 of 2): as the sequence (VL, as listed by the source, chain 2 of 2) above

Optical Density at 450 nm [1]: 0.797 | percent maximum binding [1]: 37% | Optical Density at 450 nm (CA215 (human) [2]): 2.15 | percent maximum binding (CA215 (human) [2]): 100% | Relative Signal Intensity in Sandwich EIA (CA215 (human) [3]): 100% | Relative Signal Intensity in Sandwich EIA (CA215 (human) [4]): 100% | ODs405/ODn405 (CA215 (human) [5]): 11.6
Substance: RP215 monoclonal antibody

Relative Signal Intensity in Sandwich EIA (CA215 (human) [6]): 14.5% | Relative Signal Intensity in Sandwich EIA (CA215 (human) [7]): 15.4%
Substance: chimeric RP215 mAb (antibody)

Relative Intensity [8]: 100% | Relative Intensity (humanized RP215): 5% | Relative Intensity (chimeric RP215 mAb): 7% | Relative Intensity (human IgG (human)): 3%
Substance: goat anti-mouse IgG (antibody)
